1 molecule from PMC7505474 (2020) can be followed below.

Usually koff stands for the first-order rate constant of dissociation.

The target in this experiment is Recombinant TLR4 protein (R&D Systems 478-TR-050) (UniProt O00206 24-631). As to the kind of experiment: SPR. On the technique in general: In SPR one partner is held on a chip, and binding of the other changes the refractive index at the surface.
Chain of Recombinant TLR4 protein (R&D Systems 478-TR-050) (O00206 24-631): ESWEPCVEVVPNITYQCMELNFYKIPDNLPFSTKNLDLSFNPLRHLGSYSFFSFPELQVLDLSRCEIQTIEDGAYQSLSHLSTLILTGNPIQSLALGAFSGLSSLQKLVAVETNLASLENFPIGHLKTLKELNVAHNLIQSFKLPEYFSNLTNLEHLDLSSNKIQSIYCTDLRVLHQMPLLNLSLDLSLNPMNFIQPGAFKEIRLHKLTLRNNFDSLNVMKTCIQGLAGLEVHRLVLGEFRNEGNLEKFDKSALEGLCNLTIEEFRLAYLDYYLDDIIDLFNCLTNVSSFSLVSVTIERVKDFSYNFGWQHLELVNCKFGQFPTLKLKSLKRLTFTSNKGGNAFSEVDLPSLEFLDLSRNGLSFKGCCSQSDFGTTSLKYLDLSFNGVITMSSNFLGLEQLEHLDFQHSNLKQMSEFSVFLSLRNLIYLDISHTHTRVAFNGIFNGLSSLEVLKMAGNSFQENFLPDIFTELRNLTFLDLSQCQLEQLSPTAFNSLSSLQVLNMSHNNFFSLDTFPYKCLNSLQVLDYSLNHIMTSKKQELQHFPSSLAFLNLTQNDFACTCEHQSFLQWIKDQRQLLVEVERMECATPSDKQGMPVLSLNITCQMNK

B1: human recombinant IFI16 protein (natural protein)
chain: MGKKYKNIVLLKGLEVINDYHFRMVKSLLSNDLKLNLKMREEYDKIQIADLMEEKFRGDAGLGKLIKIFEDIPTLEDLAETLKKEKLKVKGPALSRKRKKEVDATSPAPSTSSTVKTEGAEATPGAQKRKKSTKEKAGPKGSKVSEEQTQPPSPAGAGMSTAMGRSPSPKTSLSAPPNSSSTENPKTVAKCQVTPRRNVLQKRPVIVKVLSTTKPFEYETPEMEKKIMFHATVATQTQFFHVKVLNTSLKEKFNGKKIIIISDYLEYDSLLEVNEESTVSEAGPNQTFEVPNKIINRAKETLKIDILHKQASGNIVYGVFMLHKKTVNQKTTIYEIQDDRGKMDVVGTGQCHNIPCEEGDKLQLFCFRLRKKNQMSKLISEMHSFIQIKKKTNPRNNDPKSMKLPQEQRQLPYPSEASTTFPESHLRTPQMPPTTPSSSFFTKKSEDTISKMNDFMRMQILKEGSHFPGPFMTSIGPAESHPHTPQMPPSTPSSSFLTTLKPRLKTEPEEVSIEDSAQSDLKEVMVLNATESFVYEPKEQKKMFHATVATENEVFRVKVFNIDLKEKFTPKKIIAIANYVCRNGFLEVYPFTLVADVNADRNMEIPKGLIRSASVTPKINQLCSQTKGSFVNGVFEVHKKNVRGEFTYYEIQDNTGKMEVVVHGRLTTINCEEGDKLKLTCFELAPKSGNTGELRSVIHSHIKVIKTRKNKKDILNPDSSMETSPDFFF
With B1, the off-rate (koff) was 0.00576 s⁻¹.
